Values quoted from earlier work in publication PMC7538161.

Target: CaMKII calmodulin-binding element peptide (Peptide A) calmodulin-binding element peptide (Homo sapiens) (UniProt Q9UQM7)
Sequence (Q9UQM7 290-309): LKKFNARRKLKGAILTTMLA

CaMKII hub hub domain, sequence (Q9UQM7 345-475): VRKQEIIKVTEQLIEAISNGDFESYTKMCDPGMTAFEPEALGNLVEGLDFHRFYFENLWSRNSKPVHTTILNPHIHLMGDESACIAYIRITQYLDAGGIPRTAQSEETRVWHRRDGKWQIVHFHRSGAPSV

CaMKII hub hub domain (from UniProt Q9UQM7)
Kd: 90 µM
